4 substances from article PMC11109483 can be followed below.

In the test the target is biotinylated HIP1 (22-309) (UniProt O00291). Briefly: SPR; Biacore T200, 25°C; biotinylated HIP1(22-309) immobilised on Sensor Chip NA (900 RU); Ub chains as analytes 60 nM to 250 uM, multicycle; 50 mM Hepes pH 7.5, 300 mM NaCl, 0.5 mM TCEP, 0.05% Tween-20, 1% BSA; steady-state affinity model.
Sequence of UniProt O00291 (O00291 22-309): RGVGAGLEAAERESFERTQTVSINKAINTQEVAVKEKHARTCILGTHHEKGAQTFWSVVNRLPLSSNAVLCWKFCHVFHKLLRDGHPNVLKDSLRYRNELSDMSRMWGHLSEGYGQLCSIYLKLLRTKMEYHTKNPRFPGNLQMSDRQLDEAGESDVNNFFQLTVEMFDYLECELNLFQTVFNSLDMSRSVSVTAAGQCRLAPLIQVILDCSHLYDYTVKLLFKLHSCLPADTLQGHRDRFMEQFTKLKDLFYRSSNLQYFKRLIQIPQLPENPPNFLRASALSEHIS
Substance “K48-linked Ub2 (from UniProt P0CG48 1-76; P0CG48 1-76)” gave an equilibrium dissociation constant (Kd) of 137 µM.

The substance “K48-linked Ub3 (from UniProt P0CG48 1-76; P0CG48 1-76)” yielded a Kd of 66.2 µM. Compared with the last substance, the Kd is about 2.1-fold lower.

The substance “K63-linked Ub2 (from UniProt P0CG48 1-76; P0CG48 1-76)” returned a Kd of 1.89 µM.

In turn, “K63-linked Ub3 (from UniProt P0CG48 1-76; P0CG48 1-76)” showed a Kd of 1.55 µM.
